This assay deals with recombinant human farnesyl:protein transferase (hFPTase) (Homo sapiens, UniProt P49354+P49356). As to the kind of experiment: continuous fluorescence assay of farnesyl:protein transferase activity with dansylated acceptor peptide. It is filed as biochemical. The note with it: for substrate of FPTase (fluorescence enhancement): other dansylated peptides synthesized to optimize the sensitivity of the assay. Here is the method: FIG. 1A is a fluorescence progress curve, A, of the reaction catalyzed by recombinant human farnesyl:protein transferase (hFPTase; 0.5 nM) using Ds-GlyCysValLeySer (SEQ.ID.NO.:1) (1.0 μM) as substrate in the presence of a saturating concentration of farnesyl diphosphate ([…]) in assay buffer (50 mM Tris-HCl, pH 7.5, 5 mM DTT, 5 mM MgCl2, 10 μM ZnCl2, and 0.2% octyl-β-D-glucopyranoside) at 30° C. Fluorescence data in the integration mode were obtained on a SPEX Fluorolog Model F112X1 spectrofluorimeter with λex =340 nm (slit width=4 nm) and λem =505 nm (slit width=8 nm) using 4 mm square microcells. Concentrations of stock solutions of Ds-GlyCysValLeuSer (SEQ.ID.NO.: 1 ) (in 20 mM Tris-CHl, pH 7.5, 10 mM EDTA) were calculated from the extinction coefficient of the dansyl moiety at 340 nm(ε=4250 M^-1 cm^-1).
Double reciprocal plot of initial velocity versus Ds-GlyCysValLeuSer (SEQ.ID.NO.:1) concentration in the presence of (.cndot.)0, and 50 nM CysIlePheMet (SEQ.ID.NO.:2) at 30° C. Reactions (400 μL) contained hFPTase(1 nM), FPP (10 μM) and varying concentrations of Ds-GlyCysValLeuSer (SEQ.ID.NO.:1) with or without 50 nM peptide CysIlePheMet (SEQ.ID.NO.:2) in assay buffer (see FIG. 1).
The continuous FPTase activity assay is based on the enhancement of fluorescence and the accompanying shift to lower wavelength emission maximum of certain fluorophores, like dansyl, upon change from a polar to non-polar molecular environment (Lakowicz, Principles of Fluorescence Spectroscopy, Plenum Press, New York, (1983)). The present invention utilizes an acceptor peptide substrate with an environmentally sensitive fluorescence probe positioned proximally to the reaction center. Substrate pentapeptide N-dansyl-GlyCysValLeuSer(Ds Gly CysValLeuSer) (SEQ.ID.NO.1) and expected product N-dansyl-Gly(S-farnesyl-Cys)ValLeuSer(Ds-Gly[f-Cys]LeuSer were synthesized by standard methods.
(Pompliano, et al., Biochemistry, 31, 3800-3807 (1992)).

Ends that are not written are not given here. Peptide text beside a SMILES is read from it. * marks the point of attachment. Dansyl = CN(C)c1cccc2c(S(=O)(=O)*)cccc12

In the case of `CC(C)=CCC/C(C)=C/CC/C(C)=C/CO[P@@](=O)(O)OP(=O)(O)O` (stereo in doubt) [FPP, farnesyl diphosphate, reference compound], for the setting “in the presence of Ds-GlyCysValLeuSer as acceptor substrate, read-out: KM (FPP)”, the Km (in general, the substrate concentration at which the rate is half of its maximum) worked out at 0.03 µM.

`CC(C)C[C@H](NC(=O)[C@@H](NC(=O)[C@H](CS)NC(=O)CNS(=O)(=O)c1cccc2c(N(C)C)cccc12)C(C)C)C(=O)N[C@@H](CO)C(=O)O` [Ds-GlyCysValLeuSer, N-dansyl-L-glycinyl-L-cysteinyl-L-valinyl-L-leucinyl-L-serine] (Dansyl-GCVLS-OH): the kcat (Ds-GlyCysValLeuSer as acceptor substrate, Michaelis-Menten kinetics, assay buffer pH 7.5, 30° C.) was found to be 0.5 S^-1. For “CysIlePheMet (CIFM) [reference compound]”, where the note is “competitive inhibitor of Ds-GlyCysValLeuSer binding, hFPTase 1 nM, FPP 10 μM, 30° C.”, the Ki (in general, a dissociation constant, usually derived from enzyme kinetics or from competition with a known ligand) worked out at 9 nM. Take “Ds-CysValIleMet (Dansyl-CVIM) [dansylated peptide]”: the “substrate of FPTase (fluorescence enhancement)” value (shortened to “substrate of FPTase”) is recorded as “substrates”. “Ds-CysValLeuSer (Dansyl-CVLS) [dansylated peptide]”: the “substrate of FPTase” value is “substrates”. Take Ds-GlyCysCysValLeuSer: the “substrate of FPTase” value is reported as “substrates”.

With “Ds-LysCysValLeuSer (Dansyl-KCVLS) [dansylated peptide]”, the “substrate of FPTase” value is recorded as “substrates”.

Values taken from US5525479A, “Fluorescence assay of Ras farnesyl protein transferase” (Merck & Co., Inc., priority 1994, dated 1996).
